Assays:
EGFR = EGFR (Homo sapiens, UniProt P00533); assay: Co-immunoprecipitation of Tinagl1 / Tinagl1 mutants with EGFR; assay type: binding; details: LM2 cells with Tinagl1-HA stably expressed
Experimental: (§1) The functional domains of the Tinagl1 protein were mapped against EGFR, Integrin β1, and Integrin α5, and the results can be seen in Table 1, below. Specifically, it can be seen that the signal peptide (11) and Somatomedin B domain (12) are required to interact with EGFR, Integrin, and Integrin.
(§2) Immunoprecipitation (IP) and western blotting (WB) analysis. For an IP experiment, cells were collected in 1.5 ml EP tube when they reached to 100% confluency in 10 or 15 cm dish as indicated. 1 ml of IP lysis buffer (20 mM Tris pH7.4, 0.15 M NaCl, 1 mM EDTA, 1 mM EGTA, 1% Tx-100) with complete protease inhibitor cocktail (Roche, 14493900) was added and put on ice for 20 min. Meanwhile, culture media was 100× concentrated and mixed with the cell lysates. The samples were centrifuged, 100 μl of the supernatant was transferred to a new tube as input, and the rest was incubated with 2 μg of IgG, anti-HA, anti-Myc, anti-Integrin subunit β1, anti-Integrin subunit α5 or anti-EGFR (as indicated in each experiment) overnight at 4° C. (recombinant proteins may be added at this step as indicated in each experiment). 30 μL of protein A/G agarose beads (Santa Cruz, sc-2003) was then added in each sample for another 2 hours at 4° C. the next day. The beads were then washed for 5 times with IP lysis buffer. […] The IP samples were washed with PBS and analyzed with WB. […]

EGF = target: T1, EGF (Homo sapiens, UniProt P01133); assay: Co-immunoprecipitation of Tinagl1-HA with recombinant EGF; assay type: binding; details: 5 μg r-EGF added into lysate
T1 construct: 5 μg of recombinant EGF (r-EGF) was added into the lysate
Experimental: FIG. 13A is an image of IP and WB assays where EK293T cells expressing Tinagl1-HA were lysed and 5 μg of recombinant EGF (r-EGF) was added into the lysate, which was then subjected to the assays.
Tinagl1 inhibits EGFR and integrin/FAK signaling pathways with distinct mechanisms. The interaction between EGFR and EGF causes conformational changes in EGFR, leading to EGFR dimerization, phosphorylation, and activation. Previous studies identified an EGFR antagonist, MIF, which competes with EGF for binding to EGFR and subsequently blocks its activation. Whether Tinagl1 inhibits EGFR activation in a similar manner was tested. […] Whether Tinagl1 and EGF compete with each other to interact with EGFR was tested. […] As a positive control, r-Tinagl1 competed with expressed Tinagl1-HA to interact with EGFR.

[1] = target: T2, mutant integrin β1 subunit (β1-M) (Homo sapiens, UniProt P05556, DEL130-240); assay: IP of Tinagl1-HA with mutant integrin β1 subunit; assay type: binding; details: HEK293T cells
T2 construct: host or cells: HEK293T

FN = FN (Homo sapiens, UniProt P02751); assay: IP of Tinagl1-HA with FN; assay type: binding; details: IP-Mass, IP/WB
Experimental: FIG. 15B is an image of WB analyses where 5 μg of FN was added into the lysate of HEK293T cells expressing Tinagl1-HA, then the lysate was immunoprecipitated with indicated antibodies, followed by WB analysis.

Integrin β1 = Integrin β1 (Homo sapiens, UniProt P05556); assay: Co-immunoprecipitation of Tinagl1 / Tinagl1 mutants with integrin β1 subunit; assay type: binding; details: LM2 cells with Tinagl1-HA stably expressed
Experimental: as §1, §2

integrin av subunit = target: T3, integrin av subunit (Homo sapiens, UniProt P05556+P06756); assay: Co-immunoprecipitation of Tinagl1 with integrin av subunit; assay type: binding; details: LM2 cells expressing Tinagl1-HA
T3 construct: endogenous in cells; host or cells: LM2 cells stably expressing Tinagl1-HA
Experimental: FIGS. 9A and 9B FIGS. 8E and 8F are images of WB analyses where LM2 cells expressing Tinagl1-HA stably were lysed and IP with IgG or anti-HA antibodies, then the IP samples were subjected to WB analysis with indicated antibodies to detect the interaction with integrin α5 subunit (9A) and integrin av subunit (9B).
as §2

[2] = tested on: FN interaction with integrin subunits β1, α5, and αv; assay: Competition IP between Tinagl1, FN and integrin subunits; assay type: binding
Integrin α5 = Integrin α5 (Homo sapiens, UniProt P05556+P08648); assay: Co-immunoprecipitation of Tinagl1 / Tinagl1 mutants with integrin α5 subunit; assay type: binding; details: LM2 cells expressing Tinagl1-HA
Experimental: as §1, §2

FAK = assay: FN- or EGF-dependent FAK phosphorylation (WB); assay type: cell-based
From the text: For WB analysis, cells were collected and lysed with IP lysis buffer described above. After boiled with SDS laemmli buffer, the samples were resolved with SDS-PAGE gel and immunoblotted with standard protocols.
FN is the major ligand for integrin α5β1 and αvβ1, and triggers integrin/FAK signal pathway after binding. FN was employed to evaluate the effects of Tinagl1 on the integrin/FAK pathway. […] Likewise, the activation of FAK by FN was attenuated in the cells overexpressing Tinagl1.

FN interaction with integrin subunits β1, α5, and αv, sequence (as listed by the source): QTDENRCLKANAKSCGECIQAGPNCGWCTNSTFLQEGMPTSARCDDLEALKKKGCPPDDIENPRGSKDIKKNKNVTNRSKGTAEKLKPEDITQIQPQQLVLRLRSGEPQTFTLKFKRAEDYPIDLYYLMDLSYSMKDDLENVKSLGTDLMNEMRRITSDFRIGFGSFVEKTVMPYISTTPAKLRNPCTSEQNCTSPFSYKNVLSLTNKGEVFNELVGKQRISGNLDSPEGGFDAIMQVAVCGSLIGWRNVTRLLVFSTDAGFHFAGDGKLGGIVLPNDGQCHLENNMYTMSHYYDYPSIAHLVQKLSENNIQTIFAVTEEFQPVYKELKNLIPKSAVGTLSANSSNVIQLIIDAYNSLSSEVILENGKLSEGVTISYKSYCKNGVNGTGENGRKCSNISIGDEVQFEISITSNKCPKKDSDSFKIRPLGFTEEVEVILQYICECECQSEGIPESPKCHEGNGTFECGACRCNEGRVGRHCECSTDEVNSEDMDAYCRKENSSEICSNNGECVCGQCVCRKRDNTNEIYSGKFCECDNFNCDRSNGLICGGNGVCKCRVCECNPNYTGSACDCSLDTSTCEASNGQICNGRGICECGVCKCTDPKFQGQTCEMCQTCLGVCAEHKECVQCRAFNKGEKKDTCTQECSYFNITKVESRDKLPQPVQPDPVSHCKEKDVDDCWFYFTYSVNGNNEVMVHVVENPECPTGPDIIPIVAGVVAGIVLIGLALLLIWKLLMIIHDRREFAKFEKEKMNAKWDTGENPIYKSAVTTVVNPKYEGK
T2 sequence (P05556 with tags, fused parts or gaps DEL130-240): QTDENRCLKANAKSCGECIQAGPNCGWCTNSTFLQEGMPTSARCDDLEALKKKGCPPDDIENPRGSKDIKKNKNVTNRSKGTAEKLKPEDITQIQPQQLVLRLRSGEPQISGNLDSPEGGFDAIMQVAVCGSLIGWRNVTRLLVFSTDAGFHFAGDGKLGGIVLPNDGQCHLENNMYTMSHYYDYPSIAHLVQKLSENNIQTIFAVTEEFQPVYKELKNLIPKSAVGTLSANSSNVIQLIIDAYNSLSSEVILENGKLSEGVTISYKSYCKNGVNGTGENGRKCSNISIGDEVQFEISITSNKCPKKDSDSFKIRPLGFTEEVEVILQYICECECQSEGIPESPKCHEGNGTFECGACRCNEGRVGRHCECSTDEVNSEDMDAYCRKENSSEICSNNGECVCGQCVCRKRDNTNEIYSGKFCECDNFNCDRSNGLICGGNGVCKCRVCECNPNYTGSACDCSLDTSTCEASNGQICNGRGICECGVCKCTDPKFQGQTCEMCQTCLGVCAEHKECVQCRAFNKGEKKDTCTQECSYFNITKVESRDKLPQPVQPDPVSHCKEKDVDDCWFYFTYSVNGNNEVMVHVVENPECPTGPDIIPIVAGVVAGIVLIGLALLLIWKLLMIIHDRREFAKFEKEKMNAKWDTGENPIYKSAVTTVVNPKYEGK
Integrin α5, sequence (P08648 42-894 limits assumed): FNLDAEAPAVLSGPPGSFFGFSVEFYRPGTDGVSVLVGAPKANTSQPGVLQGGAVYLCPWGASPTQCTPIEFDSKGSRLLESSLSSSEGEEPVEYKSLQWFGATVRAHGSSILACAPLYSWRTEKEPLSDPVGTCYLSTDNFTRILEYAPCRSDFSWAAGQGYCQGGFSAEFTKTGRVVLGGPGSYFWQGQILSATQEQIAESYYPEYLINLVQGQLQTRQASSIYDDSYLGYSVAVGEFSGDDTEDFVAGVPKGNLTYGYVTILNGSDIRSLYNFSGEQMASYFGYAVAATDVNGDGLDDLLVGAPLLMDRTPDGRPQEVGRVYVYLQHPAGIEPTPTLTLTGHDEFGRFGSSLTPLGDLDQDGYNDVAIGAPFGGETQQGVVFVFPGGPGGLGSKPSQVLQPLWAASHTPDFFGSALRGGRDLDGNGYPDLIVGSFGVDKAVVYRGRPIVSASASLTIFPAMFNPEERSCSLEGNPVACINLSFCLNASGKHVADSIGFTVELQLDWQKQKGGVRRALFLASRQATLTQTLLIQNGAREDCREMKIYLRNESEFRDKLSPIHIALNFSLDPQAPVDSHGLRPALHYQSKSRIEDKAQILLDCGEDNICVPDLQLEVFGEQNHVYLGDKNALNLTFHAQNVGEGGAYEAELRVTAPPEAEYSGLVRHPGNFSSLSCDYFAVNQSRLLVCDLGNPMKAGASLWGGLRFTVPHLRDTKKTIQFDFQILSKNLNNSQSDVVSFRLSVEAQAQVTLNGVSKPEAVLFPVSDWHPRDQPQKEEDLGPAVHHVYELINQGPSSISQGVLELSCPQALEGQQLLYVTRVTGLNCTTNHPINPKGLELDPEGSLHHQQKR
Integrin α5, sequence (P08648 895-1049 limits assumed): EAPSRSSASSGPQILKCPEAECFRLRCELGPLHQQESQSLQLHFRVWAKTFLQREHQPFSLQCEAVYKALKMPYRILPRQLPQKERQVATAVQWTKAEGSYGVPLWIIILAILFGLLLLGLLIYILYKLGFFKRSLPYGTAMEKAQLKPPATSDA
Integrin α5, sequence (P05556 21-798): as the sequence (as listed by the source) above
T3 sequence (P06756 31-889 limits assumed): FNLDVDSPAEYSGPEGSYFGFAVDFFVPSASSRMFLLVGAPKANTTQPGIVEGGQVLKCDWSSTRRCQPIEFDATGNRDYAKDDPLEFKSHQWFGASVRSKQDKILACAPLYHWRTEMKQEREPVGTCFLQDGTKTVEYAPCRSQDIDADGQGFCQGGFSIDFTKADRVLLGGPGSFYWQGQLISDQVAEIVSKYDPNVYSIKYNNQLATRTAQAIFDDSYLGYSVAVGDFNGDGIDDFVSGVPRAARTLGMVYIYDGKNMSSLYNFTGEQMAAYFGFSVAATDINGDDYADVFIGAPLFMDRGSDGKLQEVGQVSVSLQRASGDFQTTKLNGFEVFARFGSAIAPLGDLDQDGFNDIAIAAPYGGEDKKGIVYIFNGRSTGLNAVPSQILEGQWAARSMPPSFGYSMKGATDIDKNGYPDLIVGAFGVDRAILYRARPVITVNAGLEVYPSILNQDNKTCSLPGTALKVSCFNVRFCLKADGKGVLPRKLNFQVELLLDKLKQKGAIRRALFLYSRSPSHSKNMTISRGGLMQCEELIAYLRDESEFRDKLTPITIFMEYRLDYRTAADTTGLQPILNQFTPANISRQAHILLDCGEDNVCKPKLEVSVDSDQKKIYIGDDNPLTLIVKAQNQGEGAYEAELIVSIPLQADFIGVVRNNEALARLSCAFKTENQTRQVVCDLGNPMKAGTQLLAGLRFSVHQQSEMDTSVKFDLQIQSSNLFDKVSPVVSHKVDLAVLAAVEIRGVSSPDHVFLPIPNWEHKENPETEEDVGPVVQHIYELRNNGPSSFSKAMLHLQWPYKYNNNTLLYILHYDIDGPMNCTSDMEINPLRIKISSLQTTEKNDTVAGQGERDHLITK
T3 sequence (P06756 891-1048 limits assumed): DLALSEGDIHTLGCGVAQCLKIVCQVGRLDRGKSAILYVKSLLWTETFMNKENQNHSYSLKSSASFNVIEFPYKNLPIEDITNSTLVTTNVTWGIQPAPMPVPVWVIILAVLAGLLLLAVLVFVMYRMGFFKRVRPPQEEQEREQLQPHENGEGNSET
T3 sequence (P05556 21-798): as the sequence (as listed by the source) above
T1 sequence (P01133 971-1023 limits assumed, species assumed): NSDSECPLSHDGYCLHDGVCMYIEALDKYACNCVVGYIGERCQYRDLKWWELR
Integrin β1, sequence (P05556 21-798): as the sequence (as listed by the source) above
Integrin β1, sequence (P08648 42-894 partner limits assumed): as the sequence (P08648 42-894 limits assumed) above
Integrin β1, sequence (P08648 895-1049 partner limits assumed): as the sequence (P08648 895-1049 limits assumed) above

B1: Tinagl1: Tubulointerstitial nephritis antigen like 1, secreted extracellular protein; in IP experiments expressed with C-terminal HA tag (protein, listed as Homo sapiens)
chain: MWRCPLGLLLLLPLAGHLALGAQQGRGRRELAPGLHLRGIRDAGGRYCQEQDLCCRGRADDCALPYLGAICYCDLFCNRTVSDCCPDFWDFCLGVPPPFPPIQGCMHGGRIYPVLGTYWDNCNRCTCQENRQWQCDQEPCLVDPDMIKAINQGNYGWQAGNHSAFWGMTLDEGIRYRLGTIRPSSSVMNMHEIYTVLNPGEVLPTAFEASEKWPNLIHEPLDQGNCAGSWAFSTAAVASDRVSIHSLGHMTPVLSPQNLLSCDTHQQQGCRGGRLDGAWWFLRRRGVVSDHCYPFSGRERDEAGPAPPCMMHSRAMGRGKRQATAHCPNSYVNNNDIYQVTPVYRLGSNDKEIMKELMENGPVQALMEVHEDFFLYKGGIYSHTPVSLGRPERYRRHGTHSVKITGWGEETLPDGRTLKYWTAANSWGPAWGERGHFRIVRGVNECDIESFVLGVWGRVGMEDMGHH
modifications: C-terminal HA tag in IP
notes: Tubulointerstitial nephritis antigen like 1, secreted extracellular protein; in IP experiments expressed with C-terminal HA tag
- interaction with EGFR (co-IP) (EGFR): confirmed the interaction
- interaction between Tinagl1 and EGF (EGF): failed to detect any interaction
- interaction with mutant β1 subunit (deletion of aa 130-240) [1]: cannot interact
- interaction with FN (FN): interacted with FN
- interaction with integrin β1 subunit (co-IP) (Integrin β1): confirmed the interaction
- interaction with integrin av subunit (co-IP) (integrin av subunit): strongly interacted
- interaction of subunits α5 or av with FN [2]: did not compete
- interaction of FN with integrin β1 subunit ([2]; tested at 1, 2.5, and 5 μg): competitively reduced
- interaction with integrin α5 subunit (co-IP) (Integrin α5): strongly interacted
- EGF-induced FAK phosphorylation (Tyr925) (FAK): blocks this specific effect of EGF on FAK activation

Reference: patent US20210379147A1, “METHOD AND SYSTEM FOR TREATING CANCER UTILIZING TINAGL1” (The Trustees of Princeton University, priority 2018, published 2021)
